Series [1] addresses T1, FMRP (UniProt Q06787 1-632). In words: biotin-RNA affinity capture; 2 uM RNA; slightly less than full-length BC1, P=.15; 50 mM Tris-HCl pH 7.4, 2 mM MgCl2, 150 mM KCl, 1 mM EDTA, 1 mM DTT (Schaeffer buffer without tRNA, supplemented with 125 mM NaCl); SoftLink avidin resin; temper.
The target in series [2] is T1, FMRP. In words: biotin-RNA affinity capture; 2 uM RNA; 50 mM Tris-HCl pH 7.4, 2 mM MgCl2, 150 mM KCl, 1 mM EDTA, 1 mM DTT (Schaeffer buffer without tRNA, supplemented with 125 mM NaCl); SoftLink avidin resin; temper.

B1: 5'BC1-75 RNA, annealed (structured_RNA)
RNA: GGGGUUGGGGAUUUAGCUCAGUGGUAGAGCGCUUGCCUAGCAAGCGCAAGGCCCUGGGUUCGGUCCUCAGCUCU
As to B1, in the series with FMRP [1], the binding result is reported as “binds”.

B2: 3'BC1-60 RNA, annealed (structured_RNA)
RNA: AAAAAAGACAAAAUAACAAAAAGACCAAAAAAAAAACAAGGUAACUGGCACACACAACCUUU
Consider B2, for which the binding result in the series with FMRP [2] was “no binding”.

For the origin of these results see article PMC3136132.
